Experimental data reported in paper PMC9207808 (ACS Chemical Biology, 2022).
“And” between values parts separate entries of the source, which are not always exact repeats. Identical values can stand only once. Like-named read-outs stand apart in the source and are kept apart here. No end group written: not given here.

How the values were obtained:
[1] = target: Doc toxin of Salmonella enterica serovar Typhimurium (DocSTm) (Salmonella enterica serovar Typhimurium); test: SPR; DocSTm immobilised on a Series S NTA chip (150 nM, 200-400 RU); analytes in single-cycle kinetics, typically six concentrations, kinetic 1:1 fit; 22 °C; 10 mM HEPES, 500 mM NaCl, 50 μM EDTA, 0.005% TWEEN 20, pH 8.0
[2] = target: Doc1-122–His6 (DocSTm toxin) (Salmonella typhimurium); test: SPR; Biacore S200; Doc-His6 captured on a Series S NTA chip (200-400 RU); peptide as analyte, single-cycle kinetics, six concentrations (3-fold dilutions), 30 uL/min; 22 C; 10 mM HEPES, 500 mM NaCl, 50 uM EDTA, 0.005% TWEEN 20, pH 8.0; kinetic 1:1 fit
[3] = target: Doc1-122–His6 (DocSTm toxin) (Salmonella typhimurium); test: as above; remark: listed apart in the source

Row | Binder | Kd [1] [nM] | fold improvement of koff against peptide 1 [1] [fold] | fold improvement of kon against peptide 1 [1] [fold] | Kd [2] [nM] | koff [2] [s⁻¹] | kon [2] [M⁻¹ s⁻¹] | Kd [3] | koff [3] | kon [3]
1 | Ac-WMADEFAAIMAVHGNELRELADK [peptide 3 (Phd 52-73 D53A)] | 0.013 | 1.5 | 4 |  |  |  |  |  | 
2 | Ac-EFAAIMAVHGNELRELADK-OH [peptide 21 (PhdSTm55-73)] |  |  |  | 0.396 | 0.000496 | 1.25e+06 | 0.41 nM and 0.412 nM and 0.365 nM | 0.000551 s⁻¹ and 0.000501 s⁻¹ and 0.000436 s⁻¹ | 1.3e+06 1/(M s) and 1.2e+06 1/(M s) (2×)
3 | Ac-WMDAEFAAIMAVHGNELRELADK [peptide 4 (Phd 52-73 D54A)] | 0.013 | 1.5 | 4 |  |  |  |  |  | 
4 | Ac-EFAAIMAVHGNELRELA-OH [peptide 22 (PhdSTm55-71)] |  |  |  |  | 0.000503 | 1.45e+06 | 0.342 nM and 0.336 nM and 0.365 nM | 0.000521 s⁻¹ and 0.000492 s⁻¹ and 0.000495 s⁻¹ | 1.5e+06 1/(M s) (2×) and 1.4e+06 1/(M s)
5 | Ac-FAAIMAVHGNELREL-OH [peptide 23 (PhdSTm56-70)] |  |  |  |  | 0.00279 | 1.41e+06 | 1.85 nM and 1.94 nM and 2.18 nM | 0.00284 s⁻¹ and 0.00279 s⁻¹ and 0.00276 s⁻¹ | 1.53e+06 M⁻¹ s⁻¹ and 1.44e+06 M⁻¹ s⁻¹ and 1.26e+06 M⁻¹ s⁻¹
6 | Ac-WMDDEAAAIMAVHGNELRELADK [peptide 6 (Phd 52-73 F56A)] | 0.852 |  |  |  |  |  |  |  | 
